B1: Sestrin-2 (Homo sapiens), P58004 (parent)
chain: MIVADSECRAELKDYLRFAPGGVGDSGPGEEQRESRARRGPRGPSAFIPVEEVLREGAESLEQHLGLEALMSSGRVDNLAVVMGLHPDYFTSFWRLHYLLLHTDGPLASSWRHYIAIMAAARHQCSYLVGSHMAEFLQTGGDPEWLLGLHRAPEKLRKLSEINKLLAHRPWLITKEHIQALLKTGEHTWSLAELIQALVLLTHCHSLSSFVFGCGILPEGDADGSPAPQAPTPPSEQSSPPSRDPLNNSGGFESARDVEALMERMQQLQESLLRDEGTSQEEMESRFELEKSESLLVTPSADILEPSPHPDMLCFVEDPTFGYEDFTRRGAQAPPTFRAQDYTWEDHGYSLIQRLYPEGGQLLDEKFQAAYSLTYNTIAMHSGVDTSVLRRAIWNYIHCVFGIRYDDYDYGEVNQLLERNLKVYIKTVACYPEKTTRRMYNLFWRHFRHSEKVHVNLLLLEARMQAALLYALRAITRYMT
partner: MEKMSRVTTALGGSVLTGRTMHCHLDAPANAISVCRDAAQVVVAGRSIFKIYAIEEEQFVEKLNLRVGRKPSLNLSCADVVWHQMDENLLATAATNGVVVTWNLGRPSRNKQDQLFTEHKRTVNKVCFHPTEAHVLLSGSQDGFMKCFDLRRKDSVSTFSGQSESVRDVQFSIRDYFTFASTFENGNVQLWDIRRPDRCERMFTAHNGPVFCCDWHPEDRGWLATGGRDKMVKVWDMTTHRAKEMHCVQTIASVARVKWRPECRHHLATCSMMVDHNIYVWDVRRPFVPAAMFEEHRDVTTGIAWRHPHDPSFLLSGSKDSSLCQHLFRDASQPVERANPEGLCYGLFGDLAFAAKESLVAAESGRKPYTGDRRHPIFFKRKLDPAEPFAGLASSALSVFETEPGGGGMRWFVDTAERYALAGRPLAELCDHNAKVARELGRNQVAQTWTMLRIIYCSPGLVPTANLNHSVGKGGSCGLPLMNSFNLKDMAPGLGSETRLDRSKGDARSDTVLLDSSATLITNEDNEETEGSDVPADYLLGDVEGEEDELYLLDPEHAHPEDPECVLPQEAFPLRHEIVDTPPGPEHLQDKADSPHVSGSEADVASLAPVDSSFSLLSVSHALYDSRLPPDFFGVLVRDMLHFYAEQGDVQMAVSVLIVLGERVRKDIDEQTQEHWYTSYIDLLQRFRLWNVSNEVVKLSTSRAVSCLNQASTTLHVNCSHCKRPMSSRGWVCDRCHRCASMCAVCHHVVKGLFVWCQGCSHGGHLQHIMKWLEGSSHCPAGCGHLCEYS

Variants of: B1
Conditions: with wdr24_human WDR24, Q96S15

| effect of a mutation on the interaction | Variant |
| --- | --- |
| disrupting interaction strength | S190W |
